Patent US20220332804A1 (CSL INNOVATION, published 2022)

Experiments:
Assay in all cases: SPR, antibody captured, C2 as analyte;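 further: biacore SPR at 37 °C, anti-C2 mAbs captured via goat anti-human IgG on CM5 chips, double-referenced sensorgrams fit to a 1:1 kinetic or steady-state model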
human C2 K721A = target: T1, human C2 K721A (human, UniProt P06681 21-752)
T1 sequence: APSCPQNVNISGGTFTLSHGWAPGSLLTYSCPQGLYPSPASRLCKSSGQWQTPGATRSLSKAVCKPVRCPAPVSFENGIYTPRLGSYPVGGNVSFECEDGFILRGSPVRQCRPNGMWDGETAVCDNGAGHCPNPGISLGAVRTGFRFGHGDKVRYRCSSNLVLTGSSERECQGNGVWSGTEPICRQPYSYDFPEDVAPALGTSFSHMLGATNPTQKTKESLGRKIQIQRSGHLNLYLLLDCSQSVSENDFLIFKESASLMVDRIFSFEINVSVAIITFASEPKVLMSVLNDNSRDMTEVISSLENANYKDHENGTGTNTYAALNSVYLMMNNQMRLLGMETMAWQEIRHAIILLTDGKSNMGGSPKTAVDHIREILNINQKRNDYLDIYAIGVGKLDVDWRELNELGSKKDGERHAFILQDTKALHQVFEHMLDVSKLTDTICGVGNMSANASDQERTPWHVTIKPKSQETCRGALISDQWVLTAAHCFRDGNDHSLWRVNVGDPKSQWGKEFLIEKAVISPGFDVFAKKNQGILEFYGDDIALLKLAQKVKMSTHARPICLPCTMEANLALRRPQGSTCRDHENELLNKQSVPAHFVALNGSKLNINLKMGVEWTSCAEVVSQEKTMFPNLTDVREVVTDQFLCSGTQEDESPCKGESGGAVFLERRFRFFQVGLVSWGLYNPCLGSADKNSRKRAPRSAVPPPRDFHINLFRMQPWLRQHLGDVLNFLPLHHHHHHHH

human C2 S713A = target: T2, human C2 S713A (human, UniProt P06681 21-752)
T2 sequence: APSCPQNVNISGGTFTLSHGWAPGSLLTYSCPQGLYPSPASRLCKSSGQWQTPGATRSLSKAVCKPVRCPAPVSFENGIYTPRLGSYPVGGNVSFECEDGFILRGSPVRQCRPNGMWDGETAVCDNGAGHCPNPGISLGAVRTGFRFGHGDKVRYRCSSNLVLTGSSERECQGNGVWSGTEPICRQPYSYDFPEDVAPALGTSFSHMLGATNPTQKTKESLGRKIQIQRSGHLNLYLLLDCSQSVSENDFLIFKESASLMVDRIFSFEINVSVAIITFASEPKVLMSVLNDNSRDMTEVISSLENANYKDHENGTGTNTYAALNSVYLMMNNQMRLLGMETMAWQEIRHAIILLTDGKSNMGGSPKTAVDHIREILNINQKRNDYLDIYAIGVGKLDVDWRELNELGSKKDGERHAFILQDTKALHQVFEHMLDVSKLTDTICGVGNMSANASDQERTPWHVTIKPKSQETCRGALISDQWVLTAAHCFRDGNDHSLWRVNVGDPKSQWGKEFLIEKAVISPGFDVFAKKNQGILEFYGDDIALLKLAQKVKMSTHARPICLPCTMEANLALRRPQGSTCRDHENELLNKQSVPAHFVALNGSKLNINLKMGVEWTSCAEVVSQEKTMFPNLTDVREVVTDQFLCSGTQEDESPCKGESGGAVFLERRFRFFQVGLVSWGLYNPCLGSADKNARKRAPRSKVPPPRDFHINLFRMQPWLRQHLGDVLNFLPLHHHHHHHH

human C2 S720A = target: T3, human C2 S720A (human, UniProt P06681 21-752)
T3 sequence: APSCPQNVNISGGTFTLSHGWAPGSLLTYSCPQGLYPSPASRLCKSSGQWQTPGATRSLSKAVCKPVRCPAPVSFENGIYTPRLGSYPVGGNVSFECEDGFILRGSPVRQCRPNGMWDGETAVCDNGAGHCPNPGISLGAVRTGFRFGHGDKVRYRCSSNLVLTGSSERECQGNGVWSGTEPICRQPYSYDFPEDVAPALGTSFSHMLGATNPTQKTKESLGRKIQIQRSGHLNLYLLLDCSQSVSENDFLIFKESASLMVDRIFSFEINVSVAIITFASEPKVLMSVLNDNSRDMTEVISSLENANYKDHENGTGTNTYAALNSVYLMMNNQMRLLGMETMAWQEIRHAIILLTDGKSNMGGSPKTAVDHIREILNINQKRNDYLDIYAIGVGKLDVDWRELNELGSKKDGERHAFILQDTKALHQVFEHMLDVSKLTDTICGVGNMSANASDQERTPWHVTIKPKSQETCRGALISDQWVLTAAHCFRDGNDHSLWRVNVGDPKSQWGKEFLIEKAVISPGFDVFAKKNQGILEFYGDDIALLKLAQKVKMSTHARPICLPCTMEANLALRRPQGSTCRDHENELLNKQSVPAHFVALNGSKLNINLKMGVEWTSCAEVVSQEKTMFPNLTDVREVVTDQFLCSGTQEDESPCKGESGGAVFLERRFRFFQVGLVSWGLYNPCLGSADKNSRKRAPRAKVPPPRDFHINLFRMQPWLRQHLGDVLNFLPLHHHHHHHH

human C2 M452A = target: T4, human C2 M452A (human, UniProt P06681 21-752)
T4 sequence: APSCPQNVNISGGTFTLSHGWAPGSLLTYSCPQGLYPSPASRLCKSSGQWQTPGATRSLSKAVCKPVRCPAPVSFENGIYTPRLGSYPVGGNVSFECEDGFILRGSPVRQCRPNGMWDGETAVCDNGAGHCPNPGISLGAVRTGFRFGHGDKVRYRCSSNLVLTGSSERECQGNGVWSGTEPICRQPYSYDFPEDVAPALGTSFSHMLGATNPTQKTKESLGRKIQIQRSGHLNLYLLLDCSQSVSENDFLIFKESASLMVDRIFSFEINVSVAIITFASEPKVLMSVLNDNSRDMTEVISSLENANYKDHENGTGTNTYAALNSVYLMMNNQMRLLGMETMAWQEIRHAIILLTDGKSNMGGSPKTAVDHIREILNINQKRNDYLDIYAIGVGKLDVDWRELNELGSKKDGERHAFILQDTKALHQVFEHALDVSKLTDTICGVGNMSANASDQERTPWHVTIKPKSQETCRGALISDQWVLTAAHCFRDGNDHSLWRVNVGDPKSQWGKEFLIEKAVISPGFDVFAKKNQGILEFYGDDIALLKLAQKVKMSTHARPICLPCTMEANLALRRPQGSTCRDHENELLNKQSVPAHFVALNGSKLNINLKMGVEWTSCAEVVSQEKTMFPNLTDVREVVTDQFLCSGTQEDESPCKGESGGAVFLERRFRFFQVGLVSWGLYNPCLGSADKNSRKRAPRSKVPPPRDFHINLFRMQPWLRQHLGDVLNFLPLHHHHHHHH

B1: RF16-226 (antibody, human IgG4 S228P, lambda)
heavy: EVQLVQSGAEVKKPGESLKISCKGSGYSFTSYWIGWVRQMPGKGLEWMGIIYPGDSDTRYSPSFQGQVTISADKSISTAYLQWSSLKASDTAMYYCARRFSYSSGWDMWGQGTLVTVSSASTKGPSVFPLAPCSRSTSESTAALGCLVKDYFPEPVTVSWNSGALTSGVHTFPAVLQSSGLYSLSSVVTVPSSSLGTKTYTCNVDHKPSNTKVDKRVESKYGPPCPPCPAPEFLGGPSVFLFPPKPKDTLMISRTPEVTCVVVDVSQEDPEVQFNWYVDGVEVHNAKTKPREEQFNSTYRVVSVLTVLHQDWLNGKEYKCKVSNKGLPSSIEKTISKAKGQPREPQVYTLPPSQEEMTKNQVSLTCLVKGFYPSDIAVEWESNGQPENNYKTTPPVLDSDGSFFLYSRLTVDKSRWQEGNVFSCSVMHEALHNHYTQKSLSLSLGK
light: SYELTQPPSVSVSPGQTARITCSGDALTSKYVAWYQQKSGLAPLLVIYEDTRRPSGIPAKFSGSSSGSVATLTISGAHGDDEADYYCYSTDASGHQRVFGGGTKLTVLSQPKAAPSVTLFPPSSEELQANKATLVCLISDFYPGAVTVAWKADGSPVKAGVETTKPSKQSNNKYAASSYLSLTPEQWKSHRSYSCQVTHEGSTVEKTVAPTECS
notes: pH-dependent anti-C2 antibody from a phage display library; also called WT
What does the source list for B1?
Kd (human C2 K721A): 99.9 nM; Kd (human C2 S713A): 19 nM; Kd (human C2 S720A): 14.6 nM; Kd (human C2 M452A): 4.1 nM
